Reference: FireProtDB (doi:10.1021/bi000442n)
Where “and” joins values, the source holds several entries; their conditions need not be identical. Identical values can stand only once.

Conditions: Mus musculus; pH 7.5; Thermal; CD; KH2PO4-K2HPO4 10 mM; NaCl 0.0 mM; reversible: yes; whole UniProt chain shown

B1: Signal peptide peptidase wild type, Q9D8V0 (protein)
chain: MDSAVSDPHNGSAEAGTPANGTTRPPSTPEGIALAYGSLLLMALLPIFFGALRSVRCARGKSSSDMPETITSRDAARFPIIASCTLLGLYLFFKIFSQEYINLLLSMYFFVLGILALSHTISPFMNKFFPANFPNRQYQLLFTQGSGENKEEIINYEFDTKDLVCLGLSSVVGVWYLLRKHWIANNLFGLAFSLNGVELLHLNNVSTGCILLGGLFIYDIFWVFGTNVMVTVAKSFEAPIKLVFPQDLLEKGLEADNFAMLGLGDIVIPGIFIALLLRFDISLKKNTHTYFYTSFAAYIFGLGLTIFIMHIFKHAQPALLYLVPACIGFPVLVALAKGEVAEMFSYEESNPKDPAAETESKEESTEASASKRLEKKEK
Tm: 43.7 °C and 41 °C
